# Source: IntAct's records for PubMed 7664803
# B1: Proto-oncogene tyrosine-protein kinase LCK (Mus musculus), P06240 (parent)
# chain: MGCVCSSNPEDDWMENIDVCENCHYPIVPLDSKISLPIRNGSEVRDPLVTYEGSLPPASPLQDNLVIALHSYEPSHDGDLGFEKGEQLRILEQSGEWWKAQSLTTGQEGFIPFNFVAKANSLEPEPWFFKNLSRKDAERQLLAPGNTHGSFLIRESESTAGSFSLSVRDFDQNQGEVVKHYKIRNLDNGGFYISPRITFPGLHDLVRHYTNASDGLCTKLSRPCQTQKPQKPWWEDEWEVPRETLKLVERLGAGQFGEVWMGYYNGHTKVAVKSLKQGSMSPDAFLAEANLMKQLQHPRLVRLYAVVTQEPIYIITEYMENGSLVDFLKTPSGIKLNVNKLLDMAAQIAEGMAFIEEQNYIHRDLRAANILVSDTLSCKIADFGLARLIEDNEYTAREGAKFPIKWTAPEAINYGTFTIKSDVWSFGILLTEIVTHGRIPYPGMTNPEVIQNLERGYRMVRPDNCPEELYHLMMLCWKERPEDRPTFDYLRSVLDDFFTATEGQYQPQP
# Legend:
# [1] = variants of: B1; conditions: with cd4_mouse Cd4, P06332
# Sequence of cd4_mouse Cd4, P06332 (P06332 whole entry): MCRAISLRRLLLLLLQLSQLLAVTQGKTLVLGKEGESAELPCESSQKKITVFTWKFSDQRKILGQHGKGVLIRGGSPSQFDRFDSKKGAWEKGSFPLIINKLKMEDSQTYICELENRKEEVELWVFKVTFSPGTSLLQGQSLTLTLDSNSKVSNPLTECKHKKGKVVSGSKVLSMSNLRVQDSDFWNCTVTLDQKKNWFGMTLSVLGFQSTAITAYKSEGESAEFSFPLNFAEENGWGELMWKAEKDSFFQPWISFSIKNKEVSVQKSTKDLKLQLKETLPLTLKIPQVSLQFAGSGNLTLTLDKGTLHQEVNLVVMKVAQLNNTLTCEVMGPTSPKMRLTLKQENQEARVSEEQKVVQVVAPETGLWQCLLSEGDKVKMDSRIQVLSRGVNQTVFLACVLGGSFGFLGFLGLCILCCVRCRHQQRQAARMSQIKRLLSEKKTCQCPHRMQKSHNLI
# [2] = variants of: B1; conditions: with cd8a_mouse Cd8a
variant,measurement,setting,value
C20A,effect of a mutation on the interaction,[1],decreasing interaction
same,effect of a mutation on the interaction,[2],decreasing interaction
C23A,effect of a mutation on the interaction,[1],decreasing interaction
same,effect of a mutation on the interaction,[2],decreasing interaction
